For the experiment, the target named is T1, human beta-Klotho (human, UniProt Q86Z14 1-1044).
T1 sequence (looked up): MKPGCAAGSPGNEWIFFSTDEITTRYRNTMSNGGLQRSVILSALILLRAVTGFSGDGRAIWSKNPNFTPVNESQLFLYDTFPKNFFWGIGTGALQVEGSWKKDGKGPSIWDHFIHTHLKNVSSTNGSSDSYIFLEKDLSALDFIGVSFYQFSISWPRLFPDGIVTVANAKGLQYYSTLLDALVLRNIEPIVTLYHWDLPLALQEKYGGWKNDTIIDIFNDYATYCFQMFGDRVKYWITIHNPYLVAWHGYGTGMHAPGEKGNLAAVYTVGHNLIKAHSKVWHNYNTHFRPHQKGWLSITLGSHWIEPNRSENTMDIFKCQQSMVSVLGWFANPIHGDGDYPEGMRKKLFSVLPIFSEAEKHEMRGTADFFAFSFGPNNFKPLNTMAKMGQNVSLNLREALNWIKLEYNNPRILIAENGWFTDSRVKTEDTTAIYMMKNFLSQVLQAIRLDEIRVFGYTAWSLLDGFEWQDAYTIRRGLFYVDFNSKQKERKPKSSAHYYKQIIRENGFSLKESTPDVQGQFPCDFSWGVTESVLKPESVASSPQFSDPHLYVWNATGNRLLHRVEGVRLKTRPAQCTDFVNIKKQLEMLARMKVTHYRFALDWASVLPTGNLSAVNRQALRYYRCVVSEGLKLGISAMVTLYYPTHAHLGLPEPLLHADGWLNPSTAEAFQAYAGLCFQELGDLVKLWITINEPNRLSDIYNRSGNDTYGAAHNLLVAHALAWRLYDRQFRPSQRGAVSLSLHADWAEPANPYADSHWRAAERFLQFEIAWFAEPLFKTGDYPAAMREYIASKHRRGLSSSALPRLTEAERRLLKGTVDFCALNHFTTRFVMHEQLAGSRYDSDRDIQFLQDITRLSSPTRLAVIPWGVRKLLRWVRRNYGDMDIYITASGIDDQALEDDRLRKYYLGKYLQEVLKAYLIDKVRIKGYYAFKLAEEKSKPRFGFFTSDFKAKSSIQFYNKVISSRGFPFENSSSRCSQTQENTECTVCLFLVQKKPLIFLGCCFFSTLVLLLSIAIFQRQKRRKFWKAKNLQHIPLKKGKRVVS
Nature of the experiment: cell-based or functional assay.

“[Q28R, K56R, K59R, K69R, D102T, D121Q, K122R, L166F, S167G, M168L, G170T] Ala-FGF21 (from UniProt Q9NSA1 28-209) (ligand)” returned a pERK-HEK293-Beta-klotho without HSA [EC50 (nM)] Mean Value of 0.8 nM. Under “N-alpha-(4-{[2-(2-{2-[2-(2-{2-[(S)-4-carboxy-4-(17-carboxyheptadecanoylamino)butyrylamino]ethoxy}ethoxy)acetylamino]ethoxy}ethoxy)acetylamino]methyl}benzyl) [K56R, K59R, K69R, D102T, D121Q, K122R, L166F, S167G, M168L, G170T] Ala-FGF21 (Compound III) (from UniProt Q9NSA1 28-209) (ligand)” stands 1 nM.

B1: Met-FGF21 (Compound A) (ligand)
chain: MHPIPDSSPLLQFGGQVRQRYLYTDDAQQTEAHLEIREDGTVGGAADQSPESLLQLKALKPGVIQILGVKTSRFLCQRPDGALYGSLHFDPEACSFRELLLEDGYNVYQSEAHGLPLHLPGNKSPHRDPAPRGPARFLPLPGLPPALPEPPGILAPQPPDVGSSDPLSMVGPSQGRSPSYAS
As to B1, the “pERK-HEK293-Beta-klotho without HSA [EC50 (nM)] Mean Value” (“pERK-HEK293-Beta-klotho without HSA” for short) came out at 1.6 nM.

B2: N-alpha-bis-(4-{[2-(2-{2-[2-(2-{2-[(S)-4-carboxy-4-(17-carboxyheptadecanoylamino)butyrylamino]ethoxy}ethoxy)acetylamino]ethoxy}ethoxy)acetylamino]methyl}benzyl) … (ligand)
chain: GHPIPDSSPLLQFGGQVRQRYLYTDDAQQTEAHLEIREDGTVGGAADQSPESLLQLRALRPGVIQILGVRTSRFLCQRPDGALYGSLHFDPEACSFRELLLEDGYNVYQSEAHGLPLHLPGNRSPHRDPAPRGPARFLPLPGLPPALPEPPGILAPQPPDVGSSDPLSMVGPSQGRSPSYAS
modifications: alpha amino group of the N-terminal Gly carries two 4-{[2-(2-{2-[2-(2-{2-[(S)-4-carboxy-4-(17-carboxyheptadecanoylamino)butyrylamino]ethoxy}ethoxy)acetylamino]ethoxy}ethoxy)acetylamino]methyl}benzyl groups
Regarding B2, the “pERK-HEK293-Beta-klotho without HSA” value worked out at 4.6 nM.

B3: [K56R, K59R, K69R, K122R]Gly-FGF21 (ligand)
chain: GHPIPDSSPLLQFGGQVRQRYLYTDDAQQTEAHLEIREDGTVGGAADQSPESLLQLRALRPGVIQILGVRTSRFLCQRPDGALYGSLHFDPEACSFRELLLEDGYNVYQSEAHGLPLHLPGNRSPHRDPAPRGPARFLPLPGLPPALPEPPGILAPQPPDVGSSDPLSMVGPSQGRSPSYAS
As for B3, the “pERK-HEK293-Beta-klotho without HSA” value was determined as 8.3 nM.

B4: [N121Q] Ala-FGF21 (ligand)
chain: AHPIPDSSPLLQFGGQVRQRYLYTDDAQQTEAHLEIREDGTVGGAADQSPESLLQLKALKPGVIQILGVKTSRFLCQRPDGALYGSLHFDPEACSFRELLLEDGYNVYQSEAHGLPLHLPGQKSPHRDPAPRGPARFLPLPGLPPALPEPPGILAPQPPDVGSSDPLSMVGPSQGRSPSYAS
For B4, the “pERK-HEK293-Beta-klotho without HSA” value was 2.3 nM.

B5: [N121Q]Met-FGF21 (ligand)
chain: MHPIPDSSPLLQFGGQVRQRYLYTDDAQQTEAHLEIREDGTVGGAADQSPESLLQLKALKPGVIQILGVKTSRFLCQRPDGALYGSLHFDPEACSFRELLLEDGYNVYQSEAHGLPLHLPGQKSPHRDPAPRGPARFLPLPGLPPALPEPPGILAPQPPDVGSSDPLSMVGPSQGRSPSYAS
For the molecule B5, the “pERK-HEK293-Beta-klotho without HSA” value came to 1 nM.

B6: [S71C, N121Q, L166F, S167G, M168L, 173aA, G174V, Y179F, A180E, des181]Ala-FGF21 (ligand)
chain: AHPIPDSSPLLQFGGQVRQRYLYTDDAQQTEAHLEIREDGTVGGAADQSPESLLQLKALKPGVIQILGVKTCRFLCQRPDGALYGSLHFDPEACSFRELLLEDGYNVYQSEAHGLPLHLPGQKSPHRDPAPRGPARFLPLPGLPPALPEPPGILAPQPPDVGSSDPFGLVGPSQAVRSPSFE
For B6, the “pERK-HEK293-Beta-klotho without HSA” value turned out to be 0.4 nM.

B7: [N121Q, L166F, S167G, M168L, P171L, S172E, Q173A, G174V, Y179F, A180E, des181]Ala-FGF21 (ligand)
chain: AHPIPDSSPLLQFGGQVRQRYLYTDDAQQTEAHLEIREDGTVGGAADQSPESLLQLKALKPGVIQILGVKTSRFLCQRPDGALYGSLHFDPEACSFRELLLEDGYNVYQSEAHGLPLHLPGQKSPHRDPAPRGPARFLPLPGLPPALPEPPGILAPQPPDVGSSDPFGLVGLEAVRSPSFE
Consider B7, for which the “pERK-HEK293-Beta-klotho without HSA” value came out at 0.7 nM.

B8: [S71C, N121Q, L166F, S167G, M168L, P171L, S172E, Q173A, G174V, Y179F, A180E, des181]Ala-FGF21 (ligand)
chain: AHPIPDSSPLLQFGGQVRQRYLYTDDAQQTEAHLEIREDGTVGGAADQSPESLLQLKALKPGVIQILGVKTCRFLCQRPDGALYGSLHFDPEACSFRELLLEDGYNVYQSEAHGLPLHLPGQKSPHRDPAPRGPARFLPLPGLPPALPEPPGILAPQPPDVGSSDPFGLVGLEAVRSPSFE
Consider B8, for which the “pERK-HEK293-Beta-klotho without HSA” value came to 0.6 nM.

B9: [S71C, N121Q, L166F, S167G, M168L, des170, 173aA, G174V, Y179F, A180E, des181]Ala-FGF21 (ligand)
chain: AHPIPDSSPLLQFGGQVRQRYLYTDDAQQTEAHLEIREDGTVGGAADQSPESLLQLKALKPGVIQILGVKTCRFLCQRPDGALYGSLHFDPEACSFRELLLEDGYNVYQSEAHGLPLHLPGQKSPHRDPAPRGPARFLPLPGLPPALPEPPGILAPQPPDVGSSDPFGLVPSQAVRSPSFE
On to B9, for which the “pERK-HEK293-Beta-klotho without HSA” value worked out at 1.8 nM.

B10: N-alpha(4-{[2-(2-{2-[2-(2-{2-[(S)-4-Carboxy-4-(17-carboxyheptadecanoylamino)butyrylamino]-ethoxy}ethoxy)acetylamino]ethoxy}ethoxy)acetylamino]methyl}benzyl) … (ligand)
chain: AHPIPDSSPLLQFGGQVRQRYLYTDDAQQTEAHLEIREDGTVGGAADQSPESLLQLKALKPGVIQILGVKTCRFLCQRPDGALYGSLHFDPEACSFRELLLEDGYNVYQSEAHGLPLHLPGQKSPHRDPAPRGPARFLPLPGLPPALPEPPGILAPQPPDVGSSDPFGLVGLEAVRSPSFE
modifications: alpha amino group of the N-terminal Ala carries one 4-{[2-(2-{2-[2-(2-{2-[(S)-4-carboxy-4-(17-carboxyheptadecanoylamino)butyrylamino]ethoxy}ethoxy)acetylamino]ethoxy}ethoxy)acetylamino]methyl}benzyl group
With B10, the “pERK-HEK293-Beta-klotho without HSA” value came to 0.4 nM.

Values taken from patent US20130190232A1 (Novo Nordisk, published 2013).
